Test results published in the Human Domainome abundance scans (Beltran et al. 2025).
± gives the uncertainty stated by the source.

B1: Protein S100-G, residues 1 to 79; numbered along this chain, P02633 (parent)
chain: MSAKKSPEELKGIFEKYAAKEGDPNQLSKEELKLLLQTEFPSLLKGPSTLDELFEELDKNGDGEVSFEEFQVLVKKISQ

Variants of: B1
Assay: abundance fitness (aPCA) (normalised: wild type 0, dead -1); higher = more abundant; growth selection in yeast, the domain comes from the species named
Conditions: Bos taurus

Abundance fitness of substitutions, site by site:
A3: K -0.133 ± 0.081, M 0.013 ± 0.081, G -0.09 ± 0.076, W -0.178 ± 0.091, C 0.061 ± 0.1, E -0.095 ± 0.094, I 0.077 ± 0.081, H -0.049 ± 0.082, L 0.007 ± 0.063, V 0.129 ± 0.073, S -0.123 ± 0.063, T -0.053 ± 0.07, P -0.137 ± 0.073, Q -0.01 ± 0.081, D 0.066 ± 0.09, N 0.03 ± 0.087, F 0.103 ± 0.084
S2: K 0.225 ± 0.1, M 0.279 ± 0.12, W -0.118 ± 0.095, F 0.073 ± 0.081, H -0.09 ± 0.094, Q 0 ± 0.1, T 0.102 ± 0.076, L -0.015 ± 0.067, E -0.105 ± 0.11, P -0.699 ± 0.08, N 0.094 ± 0.087, V 0.085 ± 0.084, A -0.138 ± 0.073, G 0.039 ± 0.086, I 0.144 ± 0.088, D 0.116 ± 0.081
K4: S -0.005 ± 0.061, N 0.067 ± 0.072, D 0.092 ± 0.08, H -0.004 ± 0.077, G -0.223 ± 0.073, P -0.097 ± 0.071, Y 0.01 ± 0.07, A -0.337 ± 0.068, Q -0.06 ± 0.082, C -0.222 ± 0.079, T 0.06 ± 0.068, W -0.343 ± 0.087, F 0 ± 0.068, E -0.154 ± 0.095, L 0.051 ± 0.061, V -0.145 ± 0.066, M -0.023 ± 0.087
P7: H -0.067 ± 0.076, F -0.066 ± 0.075, G -0.121 ± 0.082, D -0.119 ± 0.092, S 0.02 ± 0.063, K -0.062 ± 0.076, C -0.021 ± 0.082, T 0.066 ± 0.07, M 0.058 ± 0.078, N -0.056 ± 0.072, R -0.079 ± 0.066, V -0.058 ± 0.073, L 0.013 ± 0.062, Y 0.063 ± 0.075, E 0.037 ± 0.1, W -0.09 ± 0.09
E8: T -0.046 ± 0.075, V -0.051 ± 0.074, H -0.148 ± 0.084, W -0.243 ± 0.089, L -0.029 ± 0.062, S -0.106 ± 0.063, N -0.11 ± 0.089, Y -0.101 ± 0.081, D -0.125 ± 0.094, F -0.079 ± 0.074, G -0.049 ± 0.082, I -0.029 ± 0.079, M 0.014 ± 0.08, A -0.054 ± 0.076, P -0.163 ± 0.074, R -0.048 ± 0.068, C -0.361 ± 0.086, K -0.004 ± 0.087, Q 0.033 ± 0.089
L10: T -0.174 ± 0.072, V -0.081 ± 0.074, F -0.048 ± 0.075, I -0.039 ± 0.088, Q -0.104 ± 0.077, A -0.09 ± 0.083, N -0.31 ± 0.09, K -0.401 ± 0.088, P -0.383 ± 0.077, D -0.322 ± 0.1, C -0.536 ± 0.1, E -0.202 ± 0.097, S -0.221 ± 0.065, R -0.488 ± 0.071, M 0.044 ± 0.085, H -0.155 ± 0.08, W -0.076 ± 0.085
K5: H -0.163 ± 0.074, E -0.105 ± 0.092, F -0.015 ± 0.071, I 0.045 ± 0.075, S -0.03 ± 0.06, R -0.154 ± 0.067, Q -0.222 ± 0.082, C -0.252 ± 0.082, T 0 ± 0.068, W -0.575 ± 0.088, M -0.017 ± 0.082, Y 0.025 ± 0.071, V -0.126 ± 0.067, P -0.253 ± 0.068, A -0.037 ± 0.072, N -0.063 ± 0.076
S6: A -0.227 ± 0.07, R -0.232 ± 0.067, D -0.071 ± 0.091, K -0.204 ± 0.094, E -0.159 ± 0.09, H -0.119 ± 0.079, C -0.398 ± 0.089, W -0.372 ± 0.091, G -0.103 ± 0.072, N -0.161 ± 0.089, L -0.15 ± 0.063, M -0.111 ± 0.087, Y -0.264 ± 0.078, T -0.03 ± 0.073, F -0.054 ± 0.076, Q -0.076 ± 0.074, V -0.203 ± 0.068, I -0.121 ± 0.09
M1: Q -0.678 ± 0.15, R -0.631 ± 0.091, I 0.027 ± 0.094, S -0.368 ± 0.097, K -0.245 ± 0.099, H -1.42 ± 0.33, L -0.378 ± 0.085, Y -0.501 ± 0.13, G -0.267 ± 0.1, N -0.186 ± 0.13, V -0.313 ± 0.078, P -1.34 ± 0.26, W -0.667 ± 0.11
E9: V -0.062 ± 0.084, D 0.063 ± 0.11, Q 0.055 ± 0.085, N -0.03 ± 0.086, P -0.211 ± 0.073, F -0.128 ± 0.083, K -0.061 ± 0.096, Y -0.023 ± 0.074, C -0.177 ± 0.091, I -0.111 ± 0.081, S -0.073 ± 0.065, R -0.179 ± 0.075, H -0.094 ± 0.078, A -0.132 ± 0.083, L -0.073 ± 0.064, M -0.035 ± 0.081, T -0.073 ± 0.075, G -0.108 ± 0.092
